Reference: patent US20100183625A1, “Treatment of Mucositis with Kallikrein Inhibitors” (Dyax Corp., priority 2009, published 2010)
Read-outs that look alike come from different tables or passages of the source.

Assays:
frog pKal = assay: Kallikrein activity in activated citrated plasma, frog; assay type: biochemical
Text: (§1) All available sequence of pKal were obtained from public databases and aligned using ClustalW and regions were highlighted based on solvent accessibility, contact with an active site Kunitz inhibitor, and those peptides identified by CLIPS analysis (FIGS. 9A-9C). Citrated plasma from each of these species was obtained and activated using a commercially available prekallikrein activator (from Enzyme Research Laboratories) according to the instructions of the manufacturer. Kallikrein activity was then measured in each of the samples in the presence or absence of […]-B01.

pKal [1] = molecular target: T1, pKal (Homo sapiens, UniProt P03952); assay: BIACORE SPR competition with EPI-KAL2 for binding pKal; conditions: IgG captured on chip, pKal 100 nM, 1 μM EPI-KAL2
T1 construct: two disulfide linked polypeptides; a heavy chain of approximately 52 kDa and a catalytic domain of approximately 34 kDa; host or cells: human plasma
Description: (§2) FIG. 7A depicts the EPI-KAL2 competition for X81-B01 binding pKal. X81-B01 (IgG) was captured on an anti-human Fc fragment specific surface of a CM5 BIACORE® chip. pKal (100 nM) was flowed over the surface in the presence (lower sensorgram in the figure) or absence of 1 μM EPI-KAL2 (upper sensorgram in the figure).
as §2, with “7B” for “7A”, “X67-D03” for “X81-B01”, “Biacore” for “BIACORE®”
Using a BIACORE® SPR assay antibodies of interest were tested for competion with a known active site inhibitor of pKal. EPI-KAL2 is potent (Ki,app=0.1 nM) active site inhibitor of pKal and a Kunitz domain inhibitor based on the first domain of tissue factor pathway inhibitor (Markland (1996) Iterative optimization of high-affinity protease inhibitors using phage display. 2. Plasma kallikrein and thrombin, Biochemistry 35(24):8058-67). Kunitz domains are known active site inhibitors of serine proteases, such as pKal.
As shown in FIGS. 7A-7B, the antibodies X81-B01 and X67-D03 were competed for binding to pKal in the presence or EPI-KAL2.

rat pKal = molecular target: T2, rat pKal (Rattus norvegicus, UniProt P14272); assay: Ki,app against rat pKal; assay type: biochemical; conditions: IgG, Table 14, read-out: < nM Ki, app against rodent pKal
T2 construct: active plasma kallikrein (pkal) has the single polypeptide chain cleaved at a single position
Description: (§3) Fourth, antibodies were tested for their ability to inhibit pKal from other species, besides human, where the amino acid sequence of pKal has been determined in order to identify amino acids that may account for the differences in inhibition.

prekallikrein = prekallikrein (Homo sapiens, UniProt P03952); assay: Surface plasmon resonance (SPR) assay for binding to prekallikrein; conditions: IgG; Table 14
Description: Antibodies that bound prekallikrein may be rendered inaccessible towards active plasma kallikrein inhibition and could substantially increase the in vivo dose required for efficacy. […] Specifically, human IgGs (X81-B01, M162-A04 (R84-H05); M160-G12 (R84-D02); and M142-H08) were captured on a CM5 chip using an anti-human Fc surface and 100 nM of plasma kallikrein or 100 nM or 500 nM prekallikrein. The prekallikrein was treated with aprotinin-sepharose to remove active plasma kallikrein.

pKal [2] = molecular target: T1, pKal; assay: Competition for binding with aprotinin; conditions: IgG; Table 14
Text: The region of pKal bound by selected anti-pKal antibodies was investigated using several methods. First, competition assays were used to determine whether the antibodies competed for binding to pKal with known active site-directed inhibitors. Second, antibodies were grouped according to whether they were inhibitors or just binders to pKal. Third, epitopes were investigated using synthetic peptides and peptidic structures based on the sequence and 3-dimensional structure of pKal. These peptidic structures are called “CLIPS” (Chemically Linked Peptides on Scaffolds) and the testing was performed by a fee for service company called Pepscan.

mouse pKal = molecular target: T3, mouse pKal (Mus musculus, UniProt P26262); assay: Ki,app against mouse pKal; assay type: biochemical; conditions: mouse; IgG; Table 14; read-out: < nM Ki, app against rodent pKal
T3 construct: active plasma kallikrein (pkal) has the single polypeptide chain cleaved at a single position
Description: as §3
Antibodies that inhibit the activity of pKal either bind near the active site and preclude substrate interactions (competitive inhibitors) or that bind away from the active site and induce allosteric changes in the structure of the active site (noncompetitive inhibitors).

pKal [3] = molecular target: T1, pKal; assay: Inhibition of pKal in presence of prekallikrein; assay type: biochemical; conditions: IgG; Table 14
pig pKal = assay: Kallikrein activity in activated citrated plasma, pig; assay type: biochemical
Text: as §1

bradykinin generation = assay: Inhibition of bradykinin generation; assay type: biochemical; conditions: IgG; Table 14
[4] = molecular target: T4, human plasma kallikrein (human pKal) (Homo sapiens, UniProt P03952); assay: Ki,app against human pKal by steady state enzyme kinetics (in vitro protease cleavage assay, Pro-Phe-Arg-aminomethylcoumarin substrate); assay type: biochemical
T4 construct: two disulfide linked polypeptides; a heavy chain of approximately 52 kDa and a catalytic domain of approximately 34 kDa; host or cells: human plasma
Text: The inhibition constant (Ki) provides a measure of inhibitor potency; it is the concentration of inhibitor required to reduce enzyme activity by half and is not dependent on enzyme or substrate concentrations. The apparent Ki (Ki,app) is obtained at different substrate concentrations by measuring the inhibitory effect of different concentrations of inhibitor (e.g., inhibitory binding protein) on the extent of the reaction (e.g., enzyme activity); fitting the change in pseudo-first order rate constant as a function of inhibitor concentration to the Morrison equation (Equation 1) yields an estimate of the apparent Ki value. The Ki is obtained from the y-intercept extracted from a linear regression analysis of a plot of Ki,app versus substrate concentration.
Where v=measured velocity; v0=velocity in the absence of inhibitor; Ki,app=apparent inhibition constant; I=total inhibitor concentration; and E=total enzyme concentration.
The sequence of human plasma kallikrein that was used in selections and subsequent screening of binding proteins is shown below (accession number NP_000883.2). The human plasma kallikrein (86 kDa) that was used was purified from human plasma and activated with factor XIIa by a commercial vendor. Factor XIIa activates prekallikrein by cleaving the polypeptide sequence at a single site (between Arg371-Ile372, cleavage site marked by “/” in the sequence below) to generate active plasma kallikrein, which then consists of two disulfide linked polypeptides; a heavy chain of approximately 52 kDa and a catalytic domain of approximately 34 kDa [Colman and Schmaier, (1997) “Contact System: A Vascular Biology Modulator With Anticoagulant, Profibrinolytic, Antiadhesive, and Proinflammatory Attributes” Blood, 90, 3819-3843]
These antibodies were produced as Fab fragments in small scale (˜20 μg) and tested for inhibition against human pKal in an in vitro protease cleavage assay using Pro-Phe-Arg-aminomethylcoumarin as the synthetic peptide substrate. […] Five antibodies were then expressed in 293T cells and purified by protein A sepharose chromatography. The antibodies were analyzed by SDS-PAGE to determine which of the inhibitory mutants are not cleaved by the host cell protease(s) (data not shown).

[5] = test system: pKal from different species; assay: Kallikrein activity in activated citrated plasma of different species; assay type: biochemical; conditions: all the species except for pig
Text: as §1

[6] = molecular target: T4, human plasma kallikrein (human pKal); assay: Ki,app against human pKal by steady state enzyme kinetics (in vitro protease cleavage assay, Pro-Phe-Arg-aminomethylcoumarin substrate); assay type: biochemical; conditions: IgG
[7] = test system: fXIa, plasmin, and trypsin; assay: Specificity with respect to other serine proteases; assay type: biochemical; conditions: IgG; Table 14

T4 sequence (P03952 391-638 limits assumed): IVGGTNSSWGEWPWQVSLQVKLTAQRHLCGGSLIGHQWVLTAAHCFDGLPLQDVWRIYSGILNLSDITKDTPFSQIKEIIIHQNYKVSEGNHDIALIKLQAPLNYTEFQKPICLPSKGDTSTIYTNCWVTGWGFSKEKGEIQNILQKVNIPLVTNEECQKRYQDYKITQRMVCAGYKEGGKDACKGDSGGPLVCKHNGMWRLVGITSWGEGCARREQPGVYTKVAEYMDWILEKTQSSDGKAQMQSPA
T4 sequence (P03952 20-390 partner limits assumed): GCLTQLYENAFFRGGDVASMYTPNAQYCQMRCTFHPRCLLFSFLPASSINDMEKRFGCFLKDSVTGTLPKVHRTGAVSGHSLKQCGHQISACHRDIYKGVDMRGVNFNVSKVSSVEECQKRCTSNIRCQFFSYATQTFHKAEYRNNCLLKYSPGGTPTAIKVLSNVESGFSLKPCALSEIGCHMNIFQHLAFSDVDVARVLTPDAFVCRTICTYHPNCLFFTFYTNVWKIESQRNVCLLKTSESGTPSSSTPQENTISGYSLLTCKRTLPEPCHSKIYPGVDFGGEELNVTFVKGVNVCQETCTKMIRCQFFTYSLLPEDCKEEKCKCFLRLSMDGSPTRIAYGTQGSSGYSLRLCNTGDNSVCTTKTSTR
T1 sequence (P03952 391-638 limits assumed): as the sequence (P03952 391-638 limits assumed) above
T1 sequence (P03952 20-390 partner limits assumed): as the sequence (P03952 20-390 partner limits assumed) above
T2 sequence (P14272 391-638 limits assumed): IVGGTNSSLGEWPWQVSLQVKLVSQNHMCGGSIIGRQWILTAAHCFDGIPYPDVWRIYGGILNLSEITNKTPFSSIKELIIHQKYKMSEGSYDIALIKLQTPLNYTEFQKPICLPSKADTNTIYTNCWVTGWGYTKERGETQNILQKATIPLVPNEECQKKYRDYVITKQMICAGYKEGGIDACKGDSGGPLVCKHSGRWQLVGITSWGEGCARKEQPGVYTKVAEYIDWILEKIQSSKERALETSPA
T2 sequence (P14272 20-390 partner limits assumed): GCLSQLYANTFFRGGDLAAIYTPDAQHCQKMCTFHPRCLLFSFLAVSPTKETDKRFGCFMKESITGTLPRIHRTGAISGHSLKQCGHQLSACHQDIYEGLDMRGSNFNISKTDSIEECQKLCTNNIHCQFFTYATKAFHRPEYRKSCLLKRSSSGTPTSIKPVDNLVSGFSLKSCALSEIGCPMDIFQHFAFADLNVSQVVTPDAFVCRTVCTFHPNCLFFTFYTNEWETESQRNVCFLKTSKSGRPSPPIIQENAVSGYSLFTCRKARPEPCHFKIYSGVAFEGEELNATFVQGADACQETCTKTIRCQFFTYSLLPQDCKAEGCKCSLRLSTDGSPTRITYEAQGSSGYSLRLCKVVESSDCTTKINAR
Chain of pig pKal (as listed by the source): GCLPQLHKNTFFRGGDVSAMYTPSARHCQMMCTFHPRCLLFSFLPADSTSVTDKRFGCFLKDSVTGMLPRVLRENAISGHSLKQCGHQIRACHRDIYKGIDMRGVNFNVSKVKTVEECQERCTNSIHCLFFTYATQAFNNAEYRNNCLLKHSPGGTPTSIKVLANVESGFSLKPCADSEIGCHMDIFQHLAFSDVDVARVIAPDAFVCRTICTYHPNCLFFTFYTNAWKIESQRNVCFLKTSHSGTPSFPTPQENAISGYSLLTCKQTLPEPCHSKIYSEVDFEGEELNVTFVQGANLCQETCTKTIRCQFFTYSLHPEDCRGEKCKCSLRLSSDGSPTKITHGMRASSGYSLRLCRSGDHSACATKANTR
Chain of pig pKal (as listed by the source): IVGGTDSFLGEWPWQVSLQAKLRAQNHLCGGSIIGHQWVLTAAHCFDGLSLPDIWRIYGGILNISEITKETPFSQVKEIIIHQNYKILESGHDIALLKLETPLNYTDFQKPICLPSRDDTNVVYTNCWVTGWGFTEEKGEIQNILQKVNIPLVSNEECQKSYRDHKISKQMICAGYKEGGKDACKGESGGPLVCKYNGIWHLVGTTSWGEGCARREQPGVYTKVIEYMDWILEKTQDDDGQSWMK
T3 sequence (P26262 391-638 limits assumed): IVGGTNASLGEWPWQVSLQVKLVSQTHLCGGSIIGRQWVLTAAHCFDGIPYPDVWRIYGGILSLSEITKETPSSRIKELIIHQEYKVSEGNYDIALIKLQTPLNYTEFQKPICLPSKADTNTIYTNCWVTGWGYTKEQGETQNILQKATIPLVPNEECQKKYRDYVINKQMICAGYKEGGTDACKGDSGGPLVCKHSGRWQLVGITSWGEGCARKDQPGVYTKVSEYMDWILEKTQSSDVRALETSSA
T3 sequence (P26262 20-390 partner limits assumed): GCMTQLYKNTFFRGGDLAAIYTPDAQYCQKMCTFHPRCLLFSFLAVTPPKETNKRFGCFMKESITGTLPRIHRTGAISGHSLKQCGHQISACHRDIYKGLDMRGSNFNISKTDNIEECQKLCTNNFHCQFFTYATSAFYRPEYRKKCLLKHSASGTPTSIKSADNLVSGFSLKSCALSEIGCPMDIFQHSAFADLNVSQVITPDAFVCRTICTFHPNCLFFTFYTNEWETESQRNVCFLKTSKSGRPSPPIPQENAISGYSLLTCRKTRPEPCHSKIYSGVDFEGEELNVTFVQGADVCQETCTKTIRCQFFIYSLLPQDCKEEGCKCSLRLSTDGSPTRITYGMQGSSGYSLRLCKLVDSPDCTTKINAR
Chain of prekallikrein (P03952 20-638): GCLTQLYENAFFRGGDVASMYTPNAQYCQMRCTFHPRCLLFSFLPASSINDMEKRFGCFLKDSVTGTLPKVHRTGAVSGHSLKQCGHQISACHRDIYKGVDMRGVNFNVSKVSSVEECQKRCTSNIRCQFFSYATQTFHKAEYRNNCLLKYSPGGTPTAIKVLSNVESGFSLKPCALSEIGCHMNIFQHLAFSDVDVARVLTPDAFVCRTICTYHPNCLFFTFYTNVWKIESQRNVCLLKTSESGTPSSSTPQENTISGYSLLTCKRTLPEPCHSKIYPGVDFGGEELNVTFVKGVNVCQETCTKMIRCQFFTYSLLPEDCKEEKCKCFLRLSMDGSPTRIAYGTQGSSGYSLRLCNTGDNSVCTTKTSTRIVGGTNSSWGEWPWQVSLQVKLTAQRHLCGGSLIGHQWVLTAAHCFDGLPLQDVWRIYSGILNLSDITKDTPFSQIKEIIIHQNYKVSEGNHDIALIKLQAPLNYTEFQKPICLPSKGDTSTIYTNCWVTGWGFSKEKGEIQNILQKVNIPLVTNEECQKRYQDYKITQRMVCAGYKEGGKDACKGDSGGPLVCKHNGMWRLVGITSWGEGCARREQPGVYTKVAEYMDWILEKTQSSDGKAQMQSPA

B1: X81-B01: codon optimized and germlined version of X63-G06 as a full length human IgG produced in CHO cells (antibody, chains of the INN, looked up, V domains shown)
VH: EVQLLESGGGLVQPGGSLRLSCAASGFTFSHYIMMWVRQAPGKGLEWVSGIYSSGGITVYADSVKGRFTISRDNSKNTLYLQMNSLRAEDTAVYYCAYRRIGVPRRDEFDIWGQGTMVTVSS
VL: DIQMTQSPSTLSASVGDRVTITCRASQSISSWLAWYQQKPGKAPKLLIYKASTLESGVPSRFSGSGSGTEFTLTISSLQPDDFATYYCQQYNTYWTFGQGTKVEIK
modifications: IgG
notes: codon optimized and germlined version of X63-G06 as a full length human IgG produced in CHO cells
Frog pKal
  inhibition of frog pKal: inhibited
pKal [1]
  competition for binding to pKal in the presence of EPI-KAL2: competed
Rat pKal
  Ki: 0.14 nM
prekallikrein
  Does not bind prekallikrein: no
pKal [2]
  Competition for binding with aprotinin: yes
Mouse pKal
  Ki: 0.011 nM
pKal [3]
  Inhibits pKal in presence of prekallikrein: yes
Pig pKal
  inhibition of pig pKal: lack of inhibition
Bradykinin generation
  Inhibits bradykinin generation: yes
[4]; Table 6, read-out: Human pKal (Ki, app nM)
  Ki: 0.2 nM
[4]; Table 15, read-out: human Ki, app
  Ki: 0.1 nM
[5]
  inhibition of pKal from different species: inhibited
[6]; Table 11, read-out: Ki, app
  Ki: 0.2 nM
[6]; Table 14, read-out: < nM Ki, app against human pKal
  Ki: 0.2 nM
[6]; pKal, germlined and sequence optimized for CHO cell expression, read-out: Ki,app
  Ki: ~0.2 nM
[7]
  Specific inhibitor with respect to fXIa, plasmin, and trypsin: yes
